From the supplement of paper PMC10567573

B1: FAM189A2 (parent)
chain: PRCDLVDLGEGKICFCCEEFQPAK
B2: ESR2 (parent)
chain: KSCQACRLRKCYEVGMVKCGSRRE

Variants of: B1
Assay: protein stability index of a GFP-peptide fusion (GPS, HEK-293T) (PSI 1-6); higher = more stable
Conditions: c terminus: a fixed tail appended
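Note: lentivirally expressed fusions sorted by FACS into six bins by GFP to DsRed ratio, PSI derived from sequencing read proportions per bin multiplied by bin number.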

Protein stability index of substitutions, site by site:
P22: L 2.74; E 3.49; I 2.75; W 3.08; M 3.07; Y 3.06; G 3.86; V 2.69; T 3.23; D 4.31; R 2.51; F 3.12; Q 3.51; N 3.28; K 3.42; H 3.13
K24: S 2.72; I 2.48; C 3.39; E 3.81; L 3.26; Q 2.25; P 3.05; H 2.52; A 2.66; W 1.99; M 2.32; T 3; R 2.89; N 3.37; V 3.06; D 3.18; F 2.23; G 3.1; Y 2.52
A23: Y 2.28; G 2.72; W 3.56; R 2.24; N 3.15; H 3.07; I 2.65; T 2.79; K 3.36; M 1.96; P 2.44; L 3.1; S 2.66; D 3.12; V 3.29; C 3.98; E 4.35; Q 3.5; F 2.85

Variants of: B2
Assay: as above
Conditions: c terminus: a fixed tail appended

Protein stability index of substitutions, site by site:
Y12: E 2.85; F 1.77; Q 2.06; L 1.89; K 2.11; W 2.24; P 2.13; G 2.36; D 1.83; M 1.41; C 2.78; R 1.9; I 1; T 2.77; A 2.9; H 2.03; N 2.43; V 2.19; S 2.29
R9: W 1.93; E 2.03; F 2.56; A 1.1; H 1.92; K 2.04; P 2.35; V 2.13; S 1.8; C 1.61; L 2.14; Q 1.99; N 1.88; Y 2.38; I 1.82; M 1.93; T 2.66; D 1.75; G 1.95
R7: E 2.69; A 1.32; L 1.74; P 2.17; K 2.03; G 2; H 1.81; F 2.29; I 1.64; D 2.06; S 1.89; Y 2.58; V 1.89; N 1.77; C 2.5; Q 1.66; W 1.89; T 2.46; M 1.48
G15: E 1.38; D 2.19; I 1.79; H 1.86; F 2.41; L 1.55; Q 1.49; P 2.35; K 2.18; M 1.96; C 2.25; T 2.03; N 1.97; R 1.91; S 1.34; A 1.69
K1: T 2.1; I 2.78; A 2.89; W 1.65; H 2.5; Q 2.42; M 1.87; E 1.72; S 3.19; L 1.95; R 2.22; N 1.59; C 2.56; P 2.35; F 2.31; G 2.71; Y 1.45; V 2.31; D 1.75
C3: T 2.57; G 2.97; P 2.92; Q 2.94; L 2.57; K 2.59; M 2.48; E 3.21; N 2.71; Y 2.19; A 2.66; I 2.39; V 2.54; F 2.2; H 2.65; D 2.69; W 1.85; S 3.24
L8: I 1.64; M 2.24; H 2.4
